The results in this text go back to patent publication US20110190200A1 (INDIANA UNIVERSITY RESEARCH AND TECHNOLOGY, published 2011).

Square brackets hold non-standard residues; d marks the D form. Side chains are listed from the residue outwards. Ends that are not written are not given here. * marks the point of attachment. Palmitoyl = CCCCCCCCCCCCCCCC(=O)*; Aib = CC(C)(N)C(=O)O

Holding throughout (test): cell-based or functional assay
Experiment [1] concerns the target T1, glucagon receptor (human, UniProt P47871 26-477).
In experiment [2] the target is T2, GLP-1 receptor (UniProt P43220 24-463, limits assumed).
Experiment [3] addresses T1, glucagon receptor. This is another data set of the same source.
Experiment [4] has as its target T2, GLP-1 receptor. This is another data set of the same source.
In experiment [5] the target is T1, glucagon receptor. This is another data set of the same source.
The target in experiment [6] is T1, glucagon receptor. The source holds these as a separate data set.
The target in experiment [7] is T1, glucagon receptor. This is another data set of the same source.
Experiment [8] has as its target T2, GLP-1 receptor. This is another data set of the same source.
Experiment [9] concerns the target T2, GLP-1 receptor. The source holds these as a separate data set.
Experiment [10] addresses T1, glucagon receptor. This is another data set of the same source.

T1 sequence (P47871 26-477): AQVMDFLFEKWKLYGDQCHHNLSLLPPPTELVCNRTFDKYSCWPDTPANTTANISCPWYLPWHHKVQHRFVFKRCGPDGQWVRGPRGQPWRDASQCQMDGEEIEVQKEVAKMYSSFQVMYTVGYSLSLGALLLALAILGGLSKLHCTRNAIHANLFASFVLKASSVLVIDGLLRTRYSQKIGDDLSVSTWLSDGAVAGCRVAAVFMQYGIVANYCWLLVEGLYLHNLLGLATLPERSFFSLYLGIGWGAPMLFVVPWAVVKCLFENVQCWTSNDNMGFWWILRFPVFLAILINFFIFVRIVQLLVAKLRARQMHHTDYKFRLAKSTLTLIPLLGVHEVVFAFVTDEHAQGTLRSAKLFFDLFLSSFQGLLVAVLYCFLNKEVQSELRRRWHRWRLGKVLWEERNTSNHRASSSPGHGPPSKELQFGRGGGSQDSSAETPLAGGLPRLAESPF

B1: Peptide 79** (Table 11) (peptide)
peptide: H[Aib]QGTFTSDK([Ala-Ala-Palmitoyl])SKYLD[Aib]RRAQDFVCWLMNT-NH2
modifications: N-terminus assumed
SMILES: CCCCCCCCCCCCCCCC(=O)N[C@@H](C)C(=O)N[C@@H](C)C(=O)NCCCC[C@H](NC(=O)[C@H](CC(=O)O)NC(=O)[C@H](CO)NC(=O)[C@@H](NC(=O)[C@H](Cc1ccccc1)NC(=O)[C@@H](NC(=O)CNC(=O)[C@H](CCC(N)=O)NC(=O)C(C)(C)NC(=O)[C@@H](N)Cc1c[nH]cn1)[C@@H](C)O)[C@@H](C)O)C(=O)N[C@@H](CO)C(=O)N[C@@H](CCCCN)C(=O)N[C@@H](Cc1ccc(O)cc1)C(=O)N[C@@H](CC(C)C)C(=O)N[C@@H](CC(=O)O)C(=O)NC(C)(C)C(=O)N[C@@H](CCCNC(=N)N)C(=O)N[C@@H](CCCNC(=N)N)C(=O)N[C@@H](C)C(=O)N[C@@H](CCC(N)=O)C(=O)N[C@@H](CC(=O)O)C(=O)N[C@@H](Cc1ccccc1)C(=O)N[C@H](C(=O)N[C@@H](CS)C(=O)N[C@@H](Cc1c[nH]c2ccccc12)C(=O)N[C@@H](CC(C)C)C(=O)N[C@@H](CCSC)C(=O)N[C@@H](CC(N)=O)C(=O)N[C@H](C(N)=O)[C@@H](C)O)C(C)C
One may read the EC50 as the concentration needed to bring the measured effect to its halfway point. Low values mean an effect from little substance, high ones a need for much substance. For B1, in the experiment with glucagon receptor [1], the “EC50 at Glucagon Receptor” value was found to be 0.01 nM. For the same molecule, in the experiment with GLP-1 receptor [2], a half-maximal response (EC50 at GLP-1 Receptor) required 0.008 nM.

B2: Glucagon R12 K29 (peptide)
peptide: HSQGTFTSDYSRYLDSRRAQDFVQWLMNK
As for B2, the “cAMP Induction, EC50” value in the experiment with glucagon receptor [3] came out at 0.81 nM; with GLP-1 receptor [4] it was 0.41 nM.

B3: D28/E29 Glucagon (peptide)
peptide: HSQGTFTSDYSKYLDSRRAQDFVQWLMDE
For B3, the “Observed EC50s (nM) in Cells Overexpressing the Glucagon Receptor, Test 3” value with glucagon receptor [5] was 0.03 nM. Also, the “EC50, in vitro activity at the glucagon receptor” value with glucagon receptor [6] was found to be 0.06 nM.

B4: AIB 16/D28/E29 Glucagon (peptide)
peptide: HSQGTFTSDYSKYLD[Aib]RRAQDFVQWLMDE
B4: the “EC50, in vitro activity at the glucagon receptor” value in the experiment with glucagon receptor [6] is 0.08 nM.

B5: Peptide dS2K10(C14)E16K20-Gluc Amide (peptide)
peptide: HXQGTFTSDKSKYLDERRAKDFVQWLMNT
modifications: d-Ser at position 2; Lys at position 10 acylated with a C14 fatty acyl group; C-terminal amide
As for B5, in the experiment with glucagon receptor [7], the half-maximal effective concentration (EC50) at the glucagon receptor amounted to 0.155 nM. Moreover, in the experiment with GLP-1 receptor [8], the 50% effective concentration (EC50) at the GLP-1 receptor came to 0.041 nM.

B6: AIB 16, 20, 24 Glucagon (peptide)
peptide: HSQGTFTSDYSKYLD[Aib]RRA[Aib]DFV[Aib]WLMNT
For the molecule B6, the “GLP-1 Receptor, Average (assay of Example 13)” value in the experiment with GLP-1 receptor [9] was 12.2 nM.

B7: Peptide dS2E16K20K30-C16 Gluc Amide (peptide)
peptide: HXQGTFTSDYSKYLDERRAKDFVQWLMNTK
modifications: d-Ser at position 2; Lys at position 30 acylated with a C16 fatty acyl group; C-terminal amide
For the molecule B7, the concentration giving a half-maximal response (EC50) at the glucagon receptor with glucagon receptor [7] came out at 4.89 nM. Besides, the “EC50 at the GLP-1 receptor” value in the experiment with GLP-1 receptor [8] came out at 3.05 nM.

B8: AIB 16, 20 Glucagon (peptide)
peptide: HSQGTFTSDYSKYLD[Aib]RRA[Aib]DFVQWLMNT
As to B8, the “Glucagon Receptor, Average (assay of Example 13)” value with glucagon receptor [10] amounted to 0.26 nM. Besides, in the experiment with GLP-1 receptor [9], the “GLP-1 Receptor, Average (assay of Example 13)” value stood at 13.6 nM.

B9: Peptide dS2E16K20K30-C14 Gluc Amide (peptide)
peptide: B7 peptide
modifications: d-Ser at position 2; Lys at position 30 acylated with a C14 fatty acyl group; C-terminal amide
As to B9, the half-maximal effective concentration (EC50) at the glucagon receptor in the experiment with glucagon receptor [7] is 3.53 nM. In the experiment with GLP-1 receptor [8], the “EC50 at the GLP-1 receptor” value worked out at 0.84 nM.

B10: Peptide dS2K10(C16)E16K20-Gluc Amide (peptide)
peptide: HXQGTFTSDKSKYLDERRAKDFVQWLMNT
modifications: d-Ser at position 2; Lys at position 10 acylated with a C16 fatty acyl group; C-terminal amide
With B10, the “EC50 at the glucagon receptor” value in the experiment with glucagon receptor [7] stood at 0.076 nM. Besides, in the experiment with GLP-1 receptor [8], a half-maximal response (EC50 at the GLP-1 receptor) required 0.041 nM.
